These results are taken from publication doi:10.1101/666776.

By Kd is commonly meant a measure of binding affinity in units of concentration. A lower Kd goes with higher affinity.

This series relates to Cascade/I-C (Cas5, Cas8c, Cas7 with crRNA) (Bacillus halodurans C-125). As to the kind of experiment: EMSA?

Consider “TACTTCCAATCCAATGCAGGTACCATCGAAAGTAACTCCATCCATAACTAAGCAACCTGTACTAGTAATCGAAAGCTTTTATCCACTTCCAATGTTATTA (double strand) [100 bp target, TTC PAM]”, for which the Kd stood at 0.148 µM.
